Data on three proteins can be found in patent US20040005691.

This data set has as its target T1, substrate S-1 (SEISY-EVEFRWKK).
T1 chain: SEISYEVEFRWKK

Substitutions are numbered along the chain they refer to. Names may count otherwise. “And” between values parts separate entries of the source, which are not always exact repeats. Equal values may be shown once.

B1: P33K-BACE expressed in E. coli from the pET11a-P33K-BACE construct (protein)
chain: MASMTGGQQMGRGSMAGVLPAHGTQHGIRLPLRSGLGGAPLGLRLPRETDEEPEEKGRRGSFVEMVDNLRGKSGQGYYVEMTVGSPPQTLNILVDTGSSNFAVGAAPHPFLHRYYQRQLSSTYRDLRKGVYVPYTQGKWEGELGTDLVSIPHGPNVTVRANIAAITESDKFFINGSNWEGILGLAYAEIARPDDSLEPFFDSLVKQTHVPNLFSLQLCGAGFPLNQSEVLASVGGSMIIGGIDHSLYTGSLWYTPIRREWYYEVIIVRVEINGQDLKMDCKEYNYDKSIVDSGTTNLRLPKKVFEAAVKSIKAASSTEKFPDGFWLGEQLVCWQAGTTPWNIFPVISLYLMGEVTNQSFRITILPQQYLRPVEDVATSQDDCYKFAISQSSTGTVMGAVIMEGFYVVFDRARKRIGFAVSACHVHDEFRTAAVEGPFVTLDMEDCGYNIPQTDES
In the case of B1, the Activity Assays (Fluorescence Peak Area) (fluorescence peak area) is 38.4 and 26.5 and 32.8; the “enzyme activity compared with BACE” value is “the P33K-BACE has essentially the same activity of BACE”.

B2: human BACE expressed in E. coli from pET11a-BACE, without the P33K mutation (protein)
chain: B1 chain with K56P
B2: the Activity Assays (Fluorescence Peak Area) (fluorescence peak area) is 31 and 45.8 and 31.9.

B3: BACE construct Asp2-2L-TM-His6 expressed in CHO cells (protein)
chain: TQHGIRLPLRSGLGGAPLGLRLPRETDEEPEEPGRRGSFVEMVDNLRGKSGQGYYVEMTVGSPPQTLNILVDTGSSNFAVGAAPHPFLHRYYQRQLSSTYRDLRKGVYVPYTQGKWEGELGTDLVSIPHGPNVTVRANIAAITESDKFFINGSNWEGILGLAYAEIARPDDSLEPFFDSLVKQTHVPNLFSLQLCGAGFPLNQSEVLASVGGSMIIGGIDHSLYTGSLWYTPIRREWYYEVIIVRVEINGQDLKMDCKEYNYDKSIVDSGTTNLRLPKKVFEAAVKSIKAASSTEKFPDGFWLGEQLVCWQAGTTPWNIFPVISLYLMGEVTNQSFRITILPQQYLRPVEDVATSQDDCYKFAISQSSTGTVMGAVIMEGFYVVFDRARKRIGFAVSACHVHDEFRTAAVEGPFVTLDMEDCGYNIPQTDESHHHHHH
Regarding B3, the Activity Assays (Fluorescence Peak Area) (fluorescence peak area) is 83.3 and 85.2 and 78.1.
